Reference: IntAct's records for PubMed 16763556

Columns and labels:
poli_human POLI = biological target: T1, poli_human POLI (UniProt Q9UNA4)
T1 sequence: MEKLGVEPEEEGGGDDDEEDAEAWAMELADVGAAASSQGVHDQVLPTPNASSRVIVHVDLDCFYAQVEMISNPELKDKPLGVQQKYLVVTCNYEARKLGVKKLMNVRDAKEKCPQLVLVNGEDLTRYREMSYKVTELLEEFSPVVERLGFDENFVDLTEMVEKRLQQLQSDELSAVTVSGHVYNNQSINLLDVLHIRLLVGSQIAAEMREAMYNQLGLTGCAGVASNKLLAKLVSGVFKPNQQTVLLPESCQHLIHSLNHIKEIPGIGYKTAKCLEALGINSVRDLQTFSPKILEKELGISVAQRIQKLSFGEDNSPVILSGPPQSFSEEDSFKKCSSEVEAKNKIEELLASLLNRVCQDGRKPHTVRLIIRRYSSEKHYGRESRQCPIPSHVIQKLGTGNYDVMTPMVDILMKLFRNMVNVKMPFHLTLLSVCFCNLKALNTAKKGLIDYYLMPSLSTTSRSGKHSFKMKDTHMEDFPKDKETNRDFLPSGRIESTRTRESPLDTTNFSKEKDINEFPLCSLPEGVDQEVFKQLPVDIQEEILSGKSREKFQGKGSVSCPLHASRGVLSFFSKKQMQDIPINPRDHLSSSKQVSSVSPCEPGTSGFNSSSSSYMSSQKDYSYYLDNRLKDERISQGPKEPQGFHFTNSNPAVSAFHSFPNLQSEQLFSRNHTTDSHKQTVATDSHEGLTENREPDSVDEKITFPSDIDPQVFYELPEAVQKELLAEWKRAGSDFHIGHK

polh_human POLH = biological target: T2, polh_human POLH (UniProt Q9Y253)
T2 sequence: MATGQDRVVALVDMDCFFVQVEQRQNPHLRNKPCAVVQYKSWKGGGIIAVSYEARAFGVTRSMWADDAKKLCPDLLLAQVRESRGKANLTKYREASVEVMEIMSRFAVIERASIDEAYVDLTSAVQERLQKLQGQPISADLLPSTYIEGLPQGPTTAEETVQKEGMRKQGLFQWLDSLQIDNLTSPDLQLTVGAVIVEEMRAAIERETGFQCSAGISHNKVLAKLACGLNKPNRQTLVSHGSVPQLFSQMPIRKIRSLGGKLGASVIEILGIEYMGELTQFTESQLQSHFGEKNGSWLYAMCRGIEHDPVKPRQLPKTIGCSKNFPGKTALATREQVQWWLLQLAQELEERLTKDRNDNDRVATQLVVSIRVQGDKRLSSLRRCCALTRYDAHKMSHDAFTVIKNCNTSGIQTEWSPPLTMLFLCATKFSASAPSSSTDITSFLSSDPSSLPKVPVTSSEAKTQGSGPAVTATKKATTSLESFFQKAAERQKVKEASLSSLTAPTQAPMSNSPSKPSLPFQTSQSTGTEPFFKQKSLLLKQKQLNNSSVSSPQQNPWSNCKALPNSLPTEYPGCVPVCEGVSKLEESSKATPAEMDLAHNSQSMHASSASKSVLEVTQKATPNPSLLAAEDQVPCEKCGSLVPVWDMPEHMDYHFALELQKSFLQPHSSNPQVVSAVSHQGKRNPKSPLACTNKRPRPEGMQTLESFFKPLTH

Substance | effect of a mutation on the interaction (poli_human POLI) | effect of a mutation on the interaction (polh_human POLH)
Polyubiquitin-C (Homo sapiens) (from UniProt P0CG48) G76S | disrupting interaction | disrupting interaction
Polyubiquitin-C (Homo sapiens) (from UniProt P0CG48) G75S | disrupting interaction | disrupting interaction
